Experimental data reported in the nanobody polyreactivity screen of Harvey et al. (2022).

Test: yeast display, Sf9 membrane polyspecificity reagent, FACS + sequencing; frameworks hold sequencing errors
Summary of the method: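 Genes from sorted yeast were amplified by colony PCR, read by MiSeq 2 × 250 sequencing and filtered on CDR length. These cells carried a synthetic nanobody library in Saccharomyces cerevisiae BJ5465 and were sorted by FACS into low and high (top ~1%) gates on anti-HA and streptavidin fluorescence. Polyreactivity is labelled according to the gate of origin.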

| Sequence | polyreactivity (PSR sort gate) |
| --- | --- |
| QVQLVESGGGLVQAGGSLRLSCAASGYTFRGYAMGWSRQAPGKERELVAAISWSGGRTYYADSVKGRFTISRDNAKYTVYLQMNSLKPEDTAVYYCAAPGQHSWGQGTQVTVSS | high polyreactivity |
| QVQLVESGGGLVQAGGSLRLSCAASGYTFRSNVMGWYRQAPGKERELVAAISRGTRTKYADSVKGRFTISRDNAKNTVYLQMNSLKPEDTAVYYCAADTGTGLDWGQGTQVTVSS | high polyreactivity |
| QVQLVESGGGLVQAGGSLRLSCAASGYTFRSYLGWYRQAPGKEREFVADISTSVTNTYYADSVKGRFTISRDNAKNTVYLQMISLKPEDTAVYYCAAGVQSVYNGEPGIILDFDYWGQGTQVTVSS | low polyreactivity |
| QVQLVESGGGLVQAGGSLRLSCAASGYTFRTNVMGWYRQAPGTERELVATINWRGGSTYYADSVKGRFTISRDYAKNTVYLLINSLKPEDTAVYYCAADGLSNVRQMDYWGQGTQVTVSS | low polyreactivity |
| QVQLVESGGGLVQAGGSLRLSCAASGYTFRVYTMGWYRQAPGTERELVAAISRRGSRTYYADSVKGRFTISRDNAKNTVYLQMNSLKPEDTAVYYCAAGIPYPDDYWGQGSQVTVSS | high polyreactivity |
| QVQLVESGGGLVQAGGSLRLSCAASGYTFRYNAMGWYKQAPWKDRELVATITRGGSTNYADSVKGRFTISRDNAKNTVYLQMNSLKPEDTEVYYCNKEAAPLGFVPSYYGRDYWGQGTQVTVSS | low polyreactivity |
| QVQLVESGGGLVQAGGSLRLSCAASGYTFRYYAMGWYRQAPGKERELVAAISSSGGNTYYADSVKGRFTISRDNAKNTVYLQMNSLIPEDTAVYYCAARRYQYPGHSLGYYYTDYYWGQGTQVTVSS | low polyreactivity |
| QVQLVESGGGLVQAGGSLRLSCAASGYTFRYYAMGWYRQAPGKERELVARITGRAGSTYYADSVKGRFTISRDNAKNTVYLQMNSLKPEDTAVYYSAASIREGFYWGQGTQVTVSS | high polyreactivity |
| QVQLVESGGGLVQAGGSLRLSCAASGYTFRYYAMVWYRQAPGKEREMVAAINGGDITNYADSVKGRFTISRDNAKNTVYLQMNSLKPVDTAVYYCAADGEDSLWTCYDYDYWGQGTQVTVSS | low polyreactivity |
| QVQLVESGGGLVQAGGSLRLSCAASGYTFSFNAMGWYRQAPGKERELVAAINRGTSTNYADSVKGRFTISRDNAKNTVYLQMNSLKPEDTAVYYCAAGFRRSAGRYDLDYWGQGTQVTVSS | high polyreactivity |
| QVQLVESGGGLVQAGGSLRLSCAASGYTFSHYAMGWYRQAPGKERELVAGITWSGGSTYYADSVKGRFTISRDNAKNTVYLQMNSLKPEDTSVYYCAAKYYWYYSYSGIPLFDYWGHGTQVTVSS | low polyreactivity |
| QVQLVESGGGLVQAGGSLRLSCAASGYTFSHYAMGWYRQAPGKERELVAGITWSGGSTYYADSVKVRFTISRDNAKNTVYVQMNSLKPEDTSVYYCAAKYYWYYSYSGIPLFDYWGQGTQVTVSS | low polyreactivity |
| QVQLVESGGGLVQAGGSLRLSCAASGYTFSVNAMGWYRQAPGKESELVATITSSGGGTYYADSVKGRFTISRDNAKNTVYLQMNSLKPEDTAVYYCAADGYWYGDIYPSDYRWYDYWGQGTQVTVSS | low polyreactivity |
| QVQLVESGGGLVQAGGSLRLSCAASGYTFSVNVMGWYRQAPGKERELVAAISGRGGRTYYADSVKGRFTISRDNAKNTVYLQMNSLKPEDTAVYYCAAVRGKPGRISYPYDYWGQGTQVTVSS | high polyreactivity |
| QVQLVESGGGLVQAGGSLRLSCAASGYTFSWYAMGWYRQAPRKERELVAGIDTSGGSTYYADSVKGRFTISRDNAKNTVYLQMNSLKPEDTAVYYCAAGLLWYSWGFWYYEYGYWGQGTQVTVSS | low polyreactivity |
| QVQLVESGGGLVQAGGSLRLSCAASGYTFSYYAMGWYRQAPGKERELVAAISVRGDSTYYADSVKGRFTISRDYAKNTVYLLMNSLKPEDTAVYYCAARVVRSSYVRYHYWGQGTQVTVSS | high polyreactivity |
| QVQLVESGGGLVQAGGSLRLSCAASGYTFTIYAMGWSRQAPGKERESVASISIDGSTYYADSVKGRFTISRDNAKNTVYLQMNSLKPEDTAGYYCAADYYYYNPGFDYWGQGTQVTVSS | low polyreactivity |
| QVQLVESGGGLVQAGGSLRLSCAASGYTFTIYAMGWYRQAPGKERELVASISIDGSTYYADSVKGRFTISRDNAKNTVYLQMNSLKPEDTAVYYCAADYYYYTPGFDYWGQGTQVTVSS | low polyreactivity |
| QVQLVESGGGLVQAGGSLRLSCAASGYTFVDYAMGWYRQAPGKERELVAAISSSGARTYYAYSVKGRFTISRDNAKNSVYLQMNSLKAEDTAVYYCNTPRPYEITTPEYYYWGQGTQVTVSS | high polyreactivity |
| QVQLVESGGGLVQAGGSLRLSCAASGYTFVNYAMGWYRQAPGKEREFVAAISRSGGSTYYADSVKGRFTISRDNAKNTVYLQMNSLKPEDTAVYYCALRGYPPYNYYYWGQGTQVTVSS | high polyreactivity |
| QVQLVESGGGLVQAGGSLRLSCAASGYTFVRYAMGWYRQAPGKEREFVASISTSGGSTYYADSVKGRFTISRDNAKNTVYLQMNSLKPEDTAVYYCAAGHVVRRPYLIYDYWGQGTQVTVSS | high polyreactivity |
| QVQLVESGGGLVQAGGSLRLSCAASGYTFVVYAMGWYRPAPGKERELVAAINKSGGSTYYADSVKGRFTISRDNAKNTVYLQMNSLKPEDTAVYYCAAVVWILYSSSRGDYWGQGTQVTVSS | low polyreactivity |

| Sequence | polyreactivity (PSR sort gate) |
| --- | --- |
| QVQLVESGGGLVQAGGSLRLSCAASGYTFVYNAMGWYRQAPGKEREFVAAITWSGTSTRYADSVKGRFTISRDNAKYTVYLQMKSLKPEDTAVYYCAARRRSAQSGSYNHWGQGTQVTVSS | high polyreactivity |
| QVQLVESGGGLVQAGGSLRLSCAASGYTFWYNAMGWYIPAPGKERELVAAIRSSGARTYYADSVKGRFTISRDNAKNTVYLQMNSLKPEDTAVYYCAASLRSGGRSHYYWGQGTQVTVSS | high polyreactivity |
| QVQLVESGGGLVQAGGSLRLSCAASGYTFYANAMGWYRQATGKEREFVASITWSGGSTYYADSVKGRFTISRDNAKNTVYLQMNSLKPEDTAVYYCAAESWFKYDYWGQGTQVTVSS | low polyreactivity |
| QVQLVESGGGLVQAGGSLRLSCAASGYTFYFYAMGWSRQAPGKERELVAAITGGGTTSYADSVKGRFTISRDNAKNTVYLQMNSLKPEDTAVYYCNVLFADKSDYWGQGSQVTVSS | low polyreactivity |
| QVQLVESGGGLVQAGGSLRLSCAASGYTFYGYAMGWYRQAPGKERELVATISTGGTTTYADSVKGRFTISRDNAKNTVYLQMNSLKPEDTAVYYCAADANQVRDVHEFYPYLHDYWGQGTQVTVSS | low polyreactivity |
| QVQLVESGGGLVQAGGSLRLSCAASGYTFYPYARGWYRQAPGKGRELVAVITSGDSTYYADSVKGRFTISRDNAKNTVYLQMNSLKPEDSAVYYCNTLGFDYYYYEYDYWVQGTQVTVSS | low polyreactivity |
| QVQLVESGGGLVQAGGSLRLSCAASGYTFYVYAMGCYRQAPGKERELVASITSSTSTKYADSVKGRFTISRDNANNTVYLQMNSLKPEDTAVYYCAADSRVPEYRSPKNDYWGQGTQVTVSS | low polyreactivity |
| QVQLVESGGGLVQAGGSLRLSCAASGYTFYVYTMGWYRPARGKERELVAAISGSGTSTYYADSVKRRFTISRDNAKNTVYLQMNSLKPEDTAVYYCNAQDSLTTVPDPEYDYWGQGTQVTVSS | low polyreactivity |
| QVQLVESGGGLVQAGGSLRLSCAASGYTFYVYTMGWYRQAPGKERELVAAISGSGTSTYYADSVKGRFTISRDNAKNTVYLQMNSLKPEDTAVYYCAAEDYSRDVYSYDYWGQGTQVTVSS | low polyreactivity |
| QVQLVESGGGLVQAGGSLRLSCAASGYTGVYALGWYRQAPGKERELVADITSGGNTDYADSVKGRFTISRDNAKNTVYLQMNSLKPEDTAVYYCATPYRRLNTWIYDYWGQGTQVTVSS | high polyreactivity |
| QVQLVESGGGLVQAGGSLRLSCAASGYTIFFNVMGGYRQAPGKERELVAAISYSGGSTNYADSVKGRFTISRDNAKNTVYLQMNSLKPEDTAVYYCNTVRSPPGHVYWGEGTQVTVSS | low polyreactivity |
| QVQLVESGGGLVQAGGSLRLSCAASGYTLADYAMGWYRQAPGKERELVAAISSGGITSYADSVKGRFTISRDNAKNTVYLQMNSLKPEDTAVYYCNAAIVGFTRAYQYDYWGQGTQVTVSS | high polyreactivity |
| QVQLVESGGGLVQAGGSLRLSCAASGYTLDNYAMGWYRQAPGKERELVAGITFSGGSTFYADSVKGRFTISRDNAKNTVYLQMNSLKPEDTAVYYCAADAEFQADHKYGYWGQGTQVTVSS | low polyreactivity |
| QVQLVESGGGLVQAGGSLRLSCAASGYTLFRNAMGWYRQAPGKERELVAAISRSGARTYYADSVKGRFTISRDNAKTTVYLQMNSLKPDYTAVYYCAAVIKWTKDDYWGQGTQVTVSS | high polyreactivity |
| QVQLVESGGGLVQAGGSLRLSCAASGYTLKYYAMGWYRQAPGKERELVAVISRGGSTYYADSVKGRFTISRDNAKNTVDLQMNSLKPEDTAVYYCAKRPTQGYYPYGYWGQGTQVTVSS | high polyreactivity |
| QVQLVESGGGLVQAGGSLRLSCAASGYTLQTYAMGWYRQAPGKERELVAAISYRGGRTYYADSVKGRFTISRDNAKNTVYLQMNSLKPEDTAVYYCATRVRYKDYPYSIRYYWGQGTQVTVSS | high polyreactivity |
| QVQLVESGGGLVQAGGSLRLSCAASGYTLRIYAMGWYRQAPGKERELVAAISRGGGTTRYADSVKGRFTISRDNAKNTVYLQMNSLKPEDTAVYYCNKDVYGYSRTGPRGYDYWGQGTQVTVSS | high polyreactivity |
| QVQLVESGGGLVQAGGSLRLSCAASGYTLSLNAMGWYRQAPGKERELVAVISWNGGRTRYADSVKGRFTISRDNAKNTVYLQMNSLKPEDTAVYYCNADIYARTYAGYYQWRPYDYWGQGTQVTVSS | high polyreactivity |
| QVQLVESGGGLVQAGGSLRLSCAASGYTLYLNAMGWYSQAPGKERELVARISGGGSTNYADYVKGRFTMSRDNAKNTVYLQMNSLKPEDTAVYYCAATIFAYGYRSFKLDYWGQGTQVTVSS | low polyreactivity |
| QVQLVESGGGLVQAGGSLRLSCAASGYTRFYAMGWYRQAPGKERELVAAISSSGGTTYYADSVKGRFTISRDNAKNTVYLQMNSLKPEDTAVYYCAKYVSYSRTLYDYWGQGTQVTVSS | high polyreactivity |
| QVQLVESGGGLVQAGGSLRLSCAASGYTSRSNAMGWYRQAPGKERELVAAIRGGGNTKYADSVKGRFTISRDTAKNTVYLQMNSLKPEDTAVYYCAVVTGSFRTRYTYYYWGLGTQVTVSS | high polyreactivity |
